# In publication doi:10.1101/2023.01.13.523903 (bioRxiv, 2023):
# Biological target: Myc-DDK tagged human CD2-associated protein (human, UniProt Q9Y5K6 1-639)
# Assay: peptide or protein array
# Chain of Myc-DDK tagged human CD2-associated protein (Q9Y5K6 whole entry): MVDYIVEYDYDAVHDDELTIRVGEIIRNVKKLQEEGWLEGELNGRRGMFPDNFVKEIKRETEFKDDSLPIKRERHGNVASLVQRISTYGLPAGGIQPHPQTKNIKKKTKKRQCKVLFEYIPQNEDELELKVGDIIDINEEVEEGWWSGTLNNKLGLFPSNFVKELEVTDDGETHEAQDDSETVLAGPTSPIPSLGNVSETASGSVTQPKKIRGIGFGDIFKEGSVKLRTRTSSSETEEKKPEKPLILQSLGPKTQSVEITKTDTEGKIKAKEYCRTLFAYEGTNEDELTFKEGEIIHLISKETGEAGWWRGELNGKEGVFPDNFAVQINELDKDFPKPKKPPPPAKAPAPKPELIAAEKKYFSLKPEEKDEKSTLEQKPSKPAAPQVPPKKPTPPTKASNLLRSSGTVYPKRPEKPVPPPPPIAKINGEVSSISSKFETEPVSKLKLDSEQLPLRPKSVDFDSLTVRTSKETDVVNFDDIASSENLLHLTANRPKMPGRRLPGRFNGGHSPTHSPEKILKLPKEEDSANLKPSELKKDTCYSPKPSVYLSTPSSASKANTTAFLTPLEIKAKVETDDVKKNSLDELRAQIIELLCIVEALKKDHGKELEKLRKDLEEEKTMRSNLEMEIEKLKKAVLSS
row,Binder,binding result
1,QRPVVPPRRPPPPKK [TKS4 peptide 189],binds
2,EAPQQRPVVPPRRPP [TKS4 peptide 188],binds
